Test results published in the DeepSol protein solubility set.

Test: soluble on expression in E. coli; label from the status in PepcDB or PDB records

Row | Sequence | soluble on expression in E. coli
1 | MGSDKIHHHHHHMTSKITRQANASEDSLLRIFTAPEDSTSTLSIIEQKLSQDLAGFLGNSIAALEKPLSEIETDFSAYQIPTEPKFVSDYADEIMQNLVAHSVHTSAPSFIGHMTSALPYFVLPLSKMMVGLNQNLVKIETSKAFTPLERQVLGMMHNLVYQQSDDFYHQWMHSANHSLGAFCSGGTVANITALWIARNRLLQPRGDFKGVTREGMTKALRFYGYDDLAILVSDRGHYSLGKTADLLGIGRDNIISIPTDEHHKVDVAAMRDAAEKLAQQNIKVMAIVGIAGTTETGNVDPLTELAALASELNCHFHVDAAWGGASLLSKKYSHLLKGIELADSVTIDAHKQMYVPMGAGMVLFKDPELAKAIVHHAEYILRVGSKDLGSQTLEGSRPGMAMLVHACLQIIGRDGYEILINNSLEKARYFGSIIDQHADFELVTAPELCLLTYRYVPKSVQAILTTALANQDSALVASINELLDGLTQFIQKHQREQGKSFVSRTRIKPAKYLRQPTTVFRVVLANPLTSHQILHDVLTEQVEIAALDSEYLPQLLAL | not soluble
2 | MGSDKIHHHHHHMTSREQIIELIKSGEFTQAELARQMGVNSGALSSYLGGKYKGNVENIENVLASWLSTRDKKEKVFVEAPHFIEIPTADKVFKALDMARFCKTIVPIFGASGVGKTKACQEYKKRYQNVWMITISPSRASLNAFLYELALELGIKDAPRRKDRLSRLILDNLKDTEGLVIVDESDHLTYDSIEELRYLQEKAEVGFALIGNNKVYTKMQGGANQAHEYARLWNRIGKKCQIKASKKGDIKAVAQAWGLDVQDKDLMTVLYDIGGKAGGLRALTQYLRLAGMTAKGQGTGITLDLILTAQAEMTGSE | not soluble
3 | MGSDKIHHHHHHMTTGKLSHAHLCGWLRFKHLTLLTTLAESRNMHATARVMHLSQPAASKMLRDLEVYFGFALFERLPRAMQPTELGEQVIRHAWILLNDMERLVDDINDLREGGYGQLLIGAIAAAAPEILPAAIARLKQARPRLSVSLQEQTSDRLLLELEHKRLDLVIGRLTHVSQHNLFDFEPLLDEPLRVVVRRDHPLTRRGEAPSLDELSHWPWILHPLSSPMRGVFESALAEEGIATPANVVETTSIQATLQLLQSSDMLAVLPRSVMRRPLAGGQYVVLERVIGKPLDYYGIITRRQEPLSPAVEELVVHLRRLAAEADGR | not soluble
4 | MGSDKIHHHHHHMTTLTFQSTTLSAIHQNNQIWLTVTEIGKALGYSDPFKSVKNIYDRHADEFTPQMTALIDMRTNGGIQKVRIFSLRGAHLIGMLSHTKVAKDFRRWVLDILDREAQQPKQLALPQPEKTYTVPLTEYRNCHLKTRVFLVHSTSYCPFLSNKKALTWRAWGWLGLFISLACICLDKIHRRE | not soluble
5 | MGSDKIHHHHHHMTTPTPVRAIVPTWLYEGLGLLVANPKVGKSTLMLQIVVAVTKGGEMWGQSVPRAKVLMIDLETNERRLRRKLEQAGAVGIESGWLLYATSWPRGLLGIDEIANTLDRDPEIKLVVIDTLQRFRDPGAGKQNAYAADYEALGPLQQLCRDRPGLAIVCVHHKRKSISDDPIDSISGSAAIAGACDSIWIMSRKGSEYTLHIQGRDWERDEDTFPIERVDQGWQLVNGPRYSSNEAEVLKHLEISGGMTGPQLGEALGIHRVSAYERLKRMADRGLVRFAGEHWHVS | not soluble
6 | MGSDKIHHHHHHMTTRERIIETAITLFNEKGTKAVTTNHIAAAMEISPGNLYYHFRNKEEIIRAIFDQMDAVGFEDYEQIIAEHPAGSLAAMEETFLMIQRFNWRYRFFKRELTSLILSDPLLREKHLRVHQAMLRLVRHSIKSSIAQGVLRPMEEDELGLFAEEIWLLTLFWLNYLEVGGEDVTESTLRRGNELVRRTVCCRLTEEGARMLGRSGPAAP | not soluble
7 | MGSDKIHHHHHHMTTVNETTSQAGLALAQAGSNSAAQGIQDQFLTLLVTQLRNQDPLNPMENAELTSQLAQISTVEGINNLKNTMLAISGQIDVSQSMDAVSMIGKGVLMPGDKVSLGADPNDPAQRGATPFGIDLQGDATKVTVKVLDPSGAVVRTMELGDLKTGVHTLQWDGNNDGGQPLADGKYSITVSASDADANPVKTEALTYGQVKSVAYSTNGLRLDLGLAGQISMLDVRKVIGASGSA | not soluble
8 | MGSDKIHHHHHHMTVKAKRFRIGVEGATTDGREIQREWLVQMAASYNPTVYTALINLEHIKSYLPESTFNRYGRVTGLVAEEIQDGPLAGKMALYADIEPTDALVELVKKGQKLFTSMEVSTKFADTGKAYLVGLGATDDPASLGTEMLAFSASAAHNPLANRKQNPENLFSEAVETLIELEEVQDEKPSLFARVTALFTKKEQTDEARFSDVHKAVELVASEQQNLSERTDKSLSEQDKRLSELESSLQEQLAAFAELEQKLSSEDSRKDYRQRAPGGDAPAGTLTNC | not soluble
9 | MGSDKIHHHHHHMTVSNPAKSIRIGTMISGNNGDAATRIREIAGLGFESFEPFFWQTTKGQNLAELGKRCVDAIGDRDITISTLGMFGNPLEETDIDLETLEGWKQCIDNAHHFGASCVAGFTGRLRGKVLTDSLPRYREIWSELAKRAADKGIRIAFENCAMDGNWQSGDWNIAHNPDAWELMFNETPDDNIGLEWEPCHQMVYLIDPLPQIRKWASKIFHVHGKDATIRWDVIREHGIFGKEPFVFMRTPGFGDSNWTNVISELRLAGYSGSIDIEGWHDPVYRDALEMTGQVHALNHLKQARGGDFIDEMAAYGGGDPSLK | not soluble
10 | MGSDKIHHHHHHMTWTDLKSSLAAEGYVASDDLAVALQLALSLGRPLLLEGAAGVGKTEIARTLSAVRDTRLIRLQCYEGLDAAQAIYEWNYQRQLLTIRAASEAGETGKAVEDRIFSRDFLLERPLLAAITQEMAPVLLIDEIDRADEEFEAYLLEILSDFQVSIPELGTITAVTRPMVVLTSNGTRDLSDALRRRCLYTYVEYPDRTAELAILKARCPDVEARLAEQIIGFVQRLREEELEKTPGVAEMLDFAAALMGLGIADLTDNPAVLQSTLTTLLKTQSDQAQITREVAGRIAVKAA | not soluble
11 | MGSDKIHHHHHHMTYREYKEPATRAGGIIELPHRTDANRFLASLGVAERATLASHLQLVHVKSGQVLCEPGMALEHVYLPVTTVISIQYASSDGMTLEIAEIGNEGIVSPQLVGTDGASPCRVITCRDGFSYRLGARVLSNLLEESAQTRQAIFRCTHLLMAQAKQISFCSRHHVLKNQLCRWFLLAYDRSRSVEIQVTHSMLAQMLGVRRETVTDAAGDIQKMGLIRQYRSSIILVDLPGLDAQSCGCHAIIREEMKKIQAAPTSASGTLTELRS | not soluble
12 | MGSDKIHHHHHHMTYSKQSEWREIQSYLPKKYHFTDNYHPTEEWWNWKGHEVHLDCFRNEKAPVKVILLHGVGTNGRQMSMILGGPLSKDGFETIAIDMPTYGVTKVKKGSVVKYDDWVDLACDYIDYEQQRDDRPIVLYGLSAGGMETYHVAAKNKKVKGIIGMTFLDQKNQQVRDETAKNLVMSRVGIPMAGIACNIGLENFKMKMSTASKMSALCNNEKVMEIFNRDKTSAANKASMRFLDSYGNYQPAMEPEDFDVCPILLTQPEQDKWTPLHLSTPFLNKIKKVDVKIVMLENGGHYPVEQPALDQMHDAIVEFIYKVTK | not soluble
13 | MGSDKIHHHHHHMVAQIQELEAQHWVKTRSSLDPNESTFLIWKGKIYAFIPGEKRQLLFKILGLSVSRCIPTAEGSWDFTSRELTYYLNPKTDEILRKWENPWTSETVPVIHVANNPVQGKFEGNFPAQVDGDSTTFVFDIFPYYPNPLADDPKFAEYSPNPIYQAAELFKLTVPTADLFNSALPSVSELKLSWDRIGQWLPWMKMGDRPGQLIYSAVGSKVNGLTELPPLLQDEINNRIPLYKQAPKALIDGEDMTSWLYFQKHFPAYLAGEIFPLPQAEEL | not soluble
14 | MGSDKIHHHHHHMVEEQHVTQYGSLLKPCMSRLENLLVHQYVECWLYWSCYETETDTRIRGIWQFMFEQELKHLHIALELLRQYEKKDWQEVIPDAEFPAPLVLESNIEYVRCVLGSTVNDTACRERYVDVRNNAPETFIRYQRMVNDPVRNVMSHTFIEDYIRKNGEDYRFEVAPNPVPELRDRTKDNICVGRQPLCRNRY | not soluble
15 | MGSDKIHHHHHHMVGCLTLTLLVGCSAAEKPVEQVKQVKNTLTAKLATEEKMIEIDGQTIYFKKIGNEKPPLLMIHGFGGSSDGFQKIYSDLAKNHTIISVDALGFGRSSKPMDFYYSFPTHANLYYKLMKKLGYDSFAILGHSMGGEISLNLTYLYPEAVTHLILTDATGGPHTLVNKQGSPRPQLSTDLNTVSAITDYDESKVKFKRNDEEHYNKMKLWPRRLQINADEIKQPTLIIWGRNDSSVSWEEGETYHQFFKNSTFHIIEKGYHAPFRQEPQEFVGYVKDFFDKNPIIAEK | not soluble
16 | MGSDKIHHHHHHMVKIAVLGLGRVGLRAAYNLASRGFDVLGLDASNDAVSRARSLGLEARLYDVEGRKAGEYLRGQRVVAAFIALPYPVASRAVAHLSSAGIPVVVASIKPLRIDPGVVRAPILTEVGVSPGLSNVILYSMAAETGGGVSARVYVGSFGAREDGLLSHASTWRVEEMLEQYVTPAKLIQDGSEAVADPLDPSLWMEYSDPEHGVLECFPSQGLAGFISRRGSLFKELMECSLRRRGHLKVVLTMRGLGLLDSTPLKVSGCIVRPFDMAVKLVETRYPPDVGDVAVFTVEARRGGRWETLARASLRHGGGWSASSKMVGGASSAFAEVFAAEGLSEEEPGIIYPEDLYELGLAEKLLSLLPSHGVSLEVG | not soluble
17 | MGSDKIHHHHHHMVKRMKLPESKNLSLYWEKYSFLLLEGSNSKDKEIVSKIFQTVEKLQSDFGKISSILKERREQLIKKRKPFINLKMRVKGKLLLGAGNPSSIEVGITLSRNYGLPIIPGTAVKGAFASFLFEFERDKYESLAHIFGDTEREGDLIFLDAIPVSDLKFSLDIVNPHFQPYYMKEKLPPNDWYDPVPIKYLVVSSGVFWFTVLESRSGVIGNSEKELIKQRFVEMLKAYGLGAKTSYGYGRFEEPS | not soluble
18 | MGSDKIHHHHHHMVKSNICGGSTMTQTLPKLVTFEQFIEWYPSNGARYELHKGVIVEMPPPSGEHENVVGFLAAQITLQFLQMGLPFCIPKTAFVKIQSNNSTYSPDILLLNHDNLVNEPLWSKQSTVIQAASIPLAVEVVSQCVARVPRVEATDEPVRVSTNWRDDYYDKFRDYEEMGIPEYWIVDYAAIGGKRFTGNPKQKTITICELVEGDYQMTVFRENNFVVSPLFPQLNLTAQQIFDSAL | not soluble
19 | MGSDKIHHHHHHMVNLDGGYTAYEQQHNNESFKLEKDKEIQIKDNRKTFNYSNLQCPGPIVNISKEIKNIAIGDQIEVVVTDHGFLNDIKSWVKQTGHTLVRLNDSGNEIRAIIQKEENKNIEVTHTKNGTTIVLFSGELDKAVAAMIIANGAKAAGRDVTIFCTFWGLNALKKIQSQRIKKKGIAKLFDFMLPNSPIKMPISKMNMFGVGNLMMRYVMKKKNVDDLPSLINQAVEQGVKLIACTMSMDVMGISKEELRDDVEYGGVGAYIGYTEQANHNLFI | not soluble
20 | MGSDKIHHHHHHMVRKKKEVAQVPSTSKEIKDTLWKSADKLRGSMDASQYKDVALGLVFLKYVSDSFEERQKEIRAELEGKGFDEEYILEDLADVDAYTSENVFWVASNARWDFLKKYSKGMDLEGKHKSIGKLIDEAMQQLMADNESLLGTLPQIYGKDNIDQRRLGELVDLFSSTYFASTKDKKARDLLGEVYEYFLDKFAKAEGKRGGEFYTPQPVVRTLVEILEPTEGRVYDPCCGSGGMFVQAEKFLEVTKRDRSNIAVYGQELNERTWRMAKMNLAIHAISSSGLGERWGDTFARDIHAGTKMDYIMANPPFNIKDWIRNEEDARWKYGVPPAKNANFAWIQHIISKLKDHGEAGVVMANGTMTSQSSGEGEIRKNMVEDDVVSCVIALPAQLFRGTGIPVCVWFFAKDKSAGVGGSVDRRGEVLLIDARQLGHMIDRTERAFSDEDITKIANAFRTWRGRKSAEGEYEDEAGFCKSATIEEIREAGYALTPGRYVGMPEAEEDDEPIDEKIARLTAELTAALDESARLDAVVREQLGRLK | not soluble
